One data set concerns lymph nodes and spleen. The experiment in a line: Cellularity of lymph nodes and spleen after i.p. Flt3-L. The data set is classed as in vivo, C57Bl/6 mice. Conditions: 2x, 3x, 5x 10 μg i.p.; 10-12 days after the first injection. As to the method: C57Bl/6 mice (n=3-9) were administered 10 μg Flt3L intraperitoneally at different timepoints (d1 to d3 or d1, d1, d3 or d0, d3). On day 10 the lymph nodes (LN) and the spleen were removed and the cell count was determined. The data shown represent the average cell count +SEM of the lymph nodes. *: p<0.05 in Tukey's multiple comparison test.
(§1) To test the effects of application of human Flt3 ligand on the efficiency of RNA-based immunizations, the changes in the cellular composition of lymph nodes and spleen were first investigated in the mouse model. For this, various application schemes (2×, 3×, 5×10 μg) of recombinant Flt3-L were applied intraperitoneally and the cellularity was determined 10-12 days after the first injection. […] This increase could be shown for all relevant subpopulations of the dendritic cells in spleen and lymph nodes (FIG. 2).

Data set [1] relates to antigen-specific CD8+ T lymphocytes. The experiment in a line: Effects of different Flt3L on the stimulation of naive T cells, MHC multimer measurement in peripheral blood. The data set is classed as in vivo, C57BL/6 mice. The note with it: 0.4 mol i.p. day 0, +3; 20 μg SIINFEKL coding RNA day +7, +10; blood day +15. On the procedure: These mice were immunized intralymphatically on day +7, +10 with 20 μg […] coding RNA. The control group remained untreated (n=2). On day +15 the frequency of antigen-specific CD8^+ T lymphocytes was measured in peripheral blood by means of MHC multimer measurement.
To this end a product recombinantly expressed in bacteria (Peprotech Flt3L) and a product expressed in human HEK293 cells (Humanzyme Flt3L) was used; cf. Example 7. Human IgG4 served as control.
These mice were immunized intralymphatically on day +7, +10 with 20 μg […] coding RNA. The control group remained untreated (n=2). On day +15 the frequency of antigen-specific CD8^+ T lymphocytes was measured by flow cytometry in peripheral blood by means of MHC multimer measurement (Beckman Coulter).
The mice were administered intraperitoneally Flt3L in equimolar amounts (day 0, +3). In addition, mice were immunized intranodally twice with […] coding RNA (+7, +10). The success of the immunization was quantified by flow cytometry on day +15 by means of tetramer staining.

A short description of data set [2]: Half-time of Flt3L-IgG4 in serum, human IgG ELISA. In kind it is in vivo, Balb/c mice. On the procedure: At defined time points (prior to administration; 3 h, 24 h, 48 h, 3 d, 5 d, 7 d, 9 d, 14 d, 21 d) serum samples of the mice were preserved. These samples were used in an ELISA assay for quantifying human IgG. The half-time is 2.14 days (=51 hours).
At defined time points (prior to administration; 3 h, 24 h, 48 h, 3 d, 5 d, 7 d, 9 d, 14 d, 21 d) serum samples of the mice were preserved. These samples were used in an ELISA assay for quantifying human IgG. The half-time is 1,667 days (=40 hours).
Serum samples obtained from the mice were preserved at defined time points (prior to administration; 3 h, 24 h, 48 h, 3 d, 5 d, 7 d, 9 d, 14 d, 21d). Human IgG was quantified in these samples by means of an ELISA assay. Due to the fusion of human IgG4 to FIt3L in this construct the Flt3L concentration can be determined by quantifying human IgG in serum of mice.
Background: An ELISA detects its analyte on a solid surface through an enzyme-linked reagent.

The test system of data set [3] is dendritic cells. The experiment in a line: Activation status (CD86, CD80, MHC-II, CD40) of lymph node dendritic cells after Flt3L. In kind it is in vivo, C57BL/6 mice. The note with it: 10 μg day 0 and 3; day 10. On the procedure: In addition, C57BL/6 mice (n=3-7) were administered Flt3L twice (day 0 and 3, each time 10 μg). On day 10 the lymph nodes were removed and the activation status (CD86, CD80, MHC-II, CD40) of the dendritic cells was determined by flow cytometry.

The test system of data set [4] is RNA uptake in the lymph nodes. The experiment in a line: Effect of Flt3-L on RNA uptake in lymph nodes, in-vivo bioluminescence. Further details: species or system C57BL/6 mice. Conditions: 10 μg i.p. day 0 and 3; 20 μg luciferase-RNA intranodally day 10. On the procedure:
(f) Effect of Flt3-L on RNA uptake. C57BL/6 mice (n=8) were treated i.p. on day 0 and 3 with 10 μg, Flt3-L, or were not treated in the control group. On day 10 the mice were injected intranodally with 20 μg luciferase-RNA. 24 h later the luciferase signal was measured by in-vivo bioluminescence.
C57BL/6 mice (n=8) were treated i.p. on day 0 and 3 with 10 μg Flt3-L or were not treated in the control group. On day 10 the mice were injected intranodally with 20 μg luciferase-RNA. 24 h later the luciferase signal was measured by in-vivo bioluminescence. […] The bars give the mean value of all measured values for a group. The experiment is representative for 3 independent experiments. Statistics: Student's t-test.

The test system of data set [5] is dendritic cells. The experiment in a line: Dendritic cell subpopulations in spleen and lymph nodes by flow cytometry after i.p. Flt3-L. In kind it is in vivo, C57Bl/6 mice. Conditions: 10 μg i.p. d0, d3; day 10. On the procedure:
C57Bl/6 mice (n=3) were administered 10 μg Flt3L twice (d0, d3) intraperitoneally. On day 10 the inguinal lymph nodes were removed, the cells were stained with corresponding antibodies and the subpopulations of the dendritic cells were quantified by flow cytometry. The data shown represent the average cell count of the subpopulation *: p<0.05 and **: p<0.001 in the two-sided unpaired t-test.
as §1
In general terms: Flow cytometry measures light scatter and fluorescence of single cells or particles in a stream.

In a further data set the test system is B16 Ova tumors. The experiment in a line: Therapeutic vaccination against B16 Ova tumors, survival. In kind it is in vivo, C57BL/6 mice. As to the method:
To examine the synergy of combining Flt3L administration with RNA vaccination, a therapeutic tumor experiment was performed. To this end, 4 groups (n=10) of C57BL/6 mice were formed. All mice received on day 0 a s.c. injection of B16 Ova cells (2×10^5). Hereof a control group was only treated by IgG4 injection (10 μg; d3, d7, d14, d17). […] The Kaplan Meier plot of the survival rate of mice is shown.
To investigate the synergy of the combination of Flt3L administration together with RNA vaccination a therapeutic tumor experiment was performed. To this end four groups (n=10) of C57BL/6 mice were formed. All mice received on day 0 a s.c. injection of 2×10^5 B16 Ova tumor cells (Bellone et al., J. Immunol., 2000, 165:2651-2656). Thereof a control group was only treated by IgG4 injection (10 μg; d3, d7, d14, d17).

“Also recorded” adds a separate entry of the source.

B1: Flt3L-IgG4: recombinant human Flt3 ligand prepared as a fusion protein with IgG4, SEQ ID NO: 6, expressed in HEK293 cells (protein)
chain: MTVLAPAWSPTTYLLLLLLLSSGLSGTQDCSFQHSPISSDFAVKIRELSDYLLQDYPVTVASNLQDEELCGGLWRLVLAQRWMERLKTVAGSKMQGLLERVNTEIHFVTKCAFQPPPSCLRFVQTNISRLLQETSEQLVALKPWITRQNFSRCLELQCQPDSSTLPPPWSPRPLEATAPTAPQPPRSPPCPSCPAPEFLGGPSVFLFPPKPKDTLMISRTPEVTCVVVDVSQEDPEVQFNWYVDGVEVHNAKTKPREEQFNSTYRVVSVLTVLHQDWLNGKEYKCKVSNKGLPSSIEKTISKAKGQPREPQVYTLPPSQEEMTKNQVSLTCLVKGFYPSDIAVEWESNGQPENNYKTTPPVLDSDGSFFLYSRLTVDKSRWQEGNVFSCSVMHEALHNHYTQKSLSLSPGK
modifications: Fusionsprotein
As to B1, in the data set with lymph nodes and spleen, the “cellularity in spleen and lymph nodes” value is “increase in cellularity in spleen and lymph nodes”. In data set [1], the “adjuvant effect (frequency of antigen-specific CD8+ T lymphocytes)” value is listed as “significant adjuvant effect; also recorded: strongest effect”. Further, in data set [2] (20 μg and 50 μg i.p.), the “detectable in serum after injection” value is listed as “up to 5 days”. Besides, in data set [2] (20 μg i.p.), the half-life in serum was determined as 51 h and the half-time in serum is given as 2.14 days. The molecule further showed a half-life in serum in data set [2] (50 μg i.p.) of 40 h. Besides, the “stability compared to Flt3L without IgG4 fusion” value in data set [2] (from serum half-life) is on record as “increased stability”. The “maturation of the dendritic cells in the lymph node” value in the data set on dendritic cells [3] was “does not lead to maturation of the dendritic cells”. The “RNA uptake in the lymph nodes (in-vivo bioluminescence)” value in data set [4] is given as “does not have an inhibitory effect”. Also, the “dendritic cells in spleen and lymph nodes” value in the data set on dendritic cells [5] is on record as “increase in dendritic cells”. Besides, the “portion of mice surviving in the long term” value in the data set with B16 Ova tumors (Flt3L-IgG4 15 μg in combination with intranodal RNA vaccination 20 μg) is on record as “about 80%”. Moreover, the “survival in the long term” value in the data set on B16 Ova tumors (Flt3L-IgG4 15 μg without RNA vaccination) stood at 10%. Also, the “therapeutic effect on tumor growth” value with B16 Ova tumors (Flt3L-IgG4 without RNA vaccination) was “minimal therapeutic effect on tumor growth”. The “effect of the combination with intranodal vaccination of RNA” value with B16 Ova tumors (survival) is “synergistic effect”.
